Assay results: patent publication US20240033331A1, “REDUCING IMMUNOGENICITY TO PEGLOTICASE” (Horizon Therapeutics USA, Inc., priority 2019, published 2024)
Where two headings read alike, the source gives them in different places.

How the values were obtained:
serum proteins = settings: cited from earlier work
[1] = human, in vivo; cited from earlier work
rats = settings: cited from earlier work
rabbits = settings: cited from earlier work
[2] = system: patients receiving pegloticase; settings: cited from earlier work; for patients maintaining a response to pegloticase: another study
[3] = system: patients treated with pegloticase; settings: cited from earlier work
patients = settings: bi-weekly or every 4 weeks for up to 30 months; 149 patients; cited from earlier work
[4] = KXX exposure (AUC) by patient weight and age; format: in vivo, human
Source text: In some embodiments, heavier and/or younger patients may have a higher incidence of anti-KXX antibodies, or may have higher anti-KXX drug titers, than lighter and/or older patients. In other embodiments, lighter and/or older patients may have higher drug loading of KXX than heavier and/or younger patients. In some embodiments, lighter patients may have higher exposures of KXX than heavier patients. For example, in some embodiments, lighter patients may have greater than 2-fold exposure to KXX than heavier patients. In some embodiments, lower drug levels in a patient may result in anti-KXX antibodies. […] In other embodiments, older patients may have higher exposures of KXX than younger patients. For example, in some embodiments, older patients may have greater than 2-fold exposure to KXX than younger patients. […] Thus, in some embodiments, additional 8-mg doses of KXX may be beneficial for younger and/or heavier patients. In other embodiments, younger and/or heavier patients may benefit from one or more loading doses of 16 mg of KXX.

[5] = diluted in infusion bags, cited from earlier work
[6] = system: hyperuricemic patients (SUA >8 mg/dL) with symptomatic gout; settings: cited from earlier work; for incidence of infusion-related reactions: pegloticase 8 mg
[7] = system: subjects with refractory gout; settings: doses of 4 to 12 mg; from 11.1±0.6 mg/dL before; cited from earlier work
[8] = system: patients treated with allopurinol; settings: cited from earlier work
lupus nephritis patients = settings: in vivo; cited from earlier work

In the case of `COc1c(C)c2c(c(O)c1C/C=C(\C)CCC(=O)OCCN1CCOCC1)C(=O)OC2` [MMF, 2-morpholinoethyl (E)-6-(1,3-dihydro4-hydroxy-6-methoxy-7-methyl-3-oxo-5-isobenzofuranyl)-4-methyl-4-hexenoate], the “bound to serum proteins” value (serum proteins) is given as 30%, the “time after which not detectable in urine” value [1] is given as 8 h and the teratogenicity (rats) is given as “teratogenic effects”. The teratogenicity (rabbits) was “teratogenic effects”.

In the case of pegloticase, the “patients with titers exceeding 1:2430 who developed IRs” value ([2]; 31 of 52 patients) is given as 60%, the “patients maintaining a response to pegloticase” value ([2]; antibody titer exceeding 1:2430 at any time, 7 of 65) is given as 10.8% and the “patients maintaining a response to pegloticase” value ([2]; never had an antibody titer above 1:2430, 58/65) is given as 89.2%. For the same compound, the “patients who developed high titer anti-pegloticase antibodies and subsequently lost response” value ([2]; one study, 69 of 169 patients) was 41%, the “other uncommon symptoms, share of patients” value ([3]; ecchymoses, sore throat, constipation, chest pain, vomiting) was “at least 5%” and the “most common adverse reactions, share of treated patients” value ([3]; gout flares, infusion reactions, nausea, contusion or ecchymosis, nasopharyngitis, constipation, chest pain, anaphylaxis, vomiting) was no less than 5%. For the same compound, the “anaphylaxis, frequency” value ([3]; human, in vivo) was 6.5%, the “infusion reactions, share of patients” value ([3]; pegloticase 8 mg every 2 weeks) was 26% and the long-term safety (patients) was “No new safety signals were observed”. For the same compound, the “mean area under the curve (AUC)” value ([4]; heavier patients) was “about 4.04 mg/L”, the “exposure, lighter versus heavier patients” value ([4]; human, in vivo) was “greater than 2 fold” and the “exposure, older versus younger patients” value ([4]; human, in vivo) was “greater than 2 fold”. For the same compound, the “mean area under the curve (AUC)” value ([4]; lighter patients) was “about 8.92 mg/L”, the “mean area AUC” value ([4]; older patients) was “about 8.86 mg/L” and the “mean area AUC” value ([4]; younger patients) was “about 3.93 mg/L”. For the same compound, the “time stable after dilution” value ([5]; 2° C. to 8° C.) was 4 h, the “time stable after dilution” value ([5]; room temperature (20° C. to 25° C.)) was 4 h and the “patients with IRs in whom loss of response (return to SUA >6 mg/dL) preceded the first IR” value ([6]; 20/21 patients) was 95%. For the same compound, the “incidence of infusion-related reactions” value ([6]; biweekly dosing) was 26%, the “incidence of infusion-related reactions” value ([6]; every-4-week dosing regimen) was 40% and the “pUAc after dosing, mean±SD” value [7] was 1.0±0.5 mg/dL.

In the case of `Sc1ncnc2nc[nH]c12` [mercaptopurine, 6-mercaptopurine], the “bound to serum proteins” value (serum proteins) is given as 30% and the “time after which not detectable in urine” value [1] is given as 8 h.

For `Oc1ncnc2[nH]ncc12` [allopurinol], the “patients developing allergic reactions” value [8] is listed as “Approximately 2%” and the severe hypersensitivity syndrome [8] is listed as “about 0.4%”.

For “rituximab: biologic given with MMF and glucocorticoids in a lupus nephritis trial”, the “rate of serious infections” value (lupus nephritis patients) is listed as 16.6 /100 patient-years.
